The source of these data is patent US20250186614A1, “COMPACT DRUG RESPONSIVE DOMAINS FOR REGULATION OF FUNCTION/ABUNDANCE AND DELIVERY OF POLYPEPTIDE PAYLOADS” (OBSIDIAN THERAPEUTICS, INC., priority 2022, published 2025).

As usually defined, the EC90 is the concentration needed for an effect of 90%.

Holding throughout (format): cell-based
The test system of assay [1] is Jurkat cells. The assay can be described thus: Tacrolimus dose response of FKBP13-AcGFP-mCherry constructs stably transduced into Jurkat cells, GFP MFI by flow cytometry. Also on record: Basal: unit not given here. Conditions: for EC90 / Tacrolimus FC: Table 14; for Fold Change: Jurkat cells stably transduced; for Tacrolimus FC: fold change; for basal AcGFP expression: absence of tacrolimus. The method, boiled down:
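Jurkat E6-1 cells lentivirally transduced with FKBP13-AcGFP-mCherry constructs to 10-25% mCherry+ (day 5) were dosed with tacrolimus. GFP geometric MFI in mCherry+ cells was measured by flow cytometry and fitted to dose-response curves.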
For orientation: In flow cytometry, cells or beads pass a laser one at a time.

Assay [2] relates to Jurkat cells. The assay is described as follows: Sirolimus (rapamycin) dose response of FKBP13 constructs stably transduced into Jurkat cells, flow cytometry. The following applies: for Fold Change: rapamycin (sirolimus), Jurkat cells stably transduced, Table 8; for EC90 / Rapamycin FC: rapamycin, Table 14; for Rapamycin FC: fold change; for difference between rapamycin and tacrolimus: ratio of EC50 and fold change, Table 9; for EC50 (tacrolimus)/ EC50 (rapamycin): ratio of Table 7 and Table 8 EC50 values; for EC50 (tacrolimus)/ EC50 (rapamycin) / Fold change (tacrolimus)/ Fold change (rapamycin): Jurkat cells; for Fold change (tacrolimus)/ Fold change (rapamycin): ratio of Table 7 and Table 8 fold changes. The method, then:
Normalized EC50 values were calculated from the mCherry normalized GFP MFI values, which accounted for any differences in mCherry intensity between samples.

The nature of assay [3]: Example 4: dose response of FKBP constructs 160-255, Ec50, Ec90 and fold change (raw and normalized to mCherry). The following applies: for FC (fold change): fold change during initial analysis. The method, then:
Additional experiments were performed for constructs FKBP-160-292.

Setting [4] is: read-out: Tacrolimus EC90 (Norm), tacrolimus, normalized.
The mark [5] stands for this setting: read-out: Tacrolimus EC90, tacrolimus.
Where [6] appears, read: normalized, read-out: Rapamycin EC90 (Norm).
Setting [7] is: FKBP constructs 160-255, not normalized, read-out: EC90.
Setting [8] is: normalized to mCherry, read-out: EC90 (Norm).

Residue numbers refer to the chain shown, from its start. Names and notes keep the numbering of the source. Where two headings read alike, the source gives them in different places.

B1: FKBP-153: FKBP13 DRD Q72R, S79W, Q84E, A117W, M54A; SEQ ID NO: 103 (protein)
chain: HCPIKSRKGDVLHAHYTGKLEDGTEFDSSLPRNQPFVFWLGTGEVIKGWDQGLLGMCEGEKRKLVIPSELGYGERGWPPKIPGGATLVFEVELLKIER
modifications: Description of sequence: FKBP13-AcGFP-mCherry Fusion; Construct Name: FKBP-153; FKBP13 DRD in Construct : FKBP13 (mutated to match FKBP12 active site Q72RS79W Q84E A117W) (DRD M54A)
For B1, in the assay with Jurkat cells [1] (setting [4]), the EC90 was 383 nM. The concentration for an effect of 90% (EC90) with Jurkat cells [1] (setting [5]) was 341 nM. For the same molecule, the “Fold Change” value in the assay with Jurkat cells [1] (tacrolimus, Table 7) is reported as 30.07. For the same molecule, the “Tacrolimus FC” value in the assay on Jurkat cells [1] (tacrolimus) is 39.7. Further, in the assay on Jurkat cells [2], the “Fold Change” value was 4.8; the “Rapamycin FC” value was found to be 6.1; the “difference between rapamycin and tacrolimus” value is “largest difference between rapamycin and tacrolimus”; the “EC50 (tacrolimus)/ EC50 (rapamycin)” value amounted to 0.20. The “Fold change (tacrolimus)/ Fold change (rapamycin)” value (“Fold change … (rapamycin)” below) with Jurkat cells [2] is reported as 6.26. Also, in the assay on Jurkat cells [2] (read-out: Rapamycin EC90), the EC90 was determined as 1520 nM. The EC90 in the assay with Jurkat cells [2] (setting [6]) turned out to be 1540 nM.

B2: FKBP-155: FKBP13 DRD Q72R, S79W, Q84R, A117W, M54A; SEQ ID NO: 105 (protein)
chain: B1 chain with E44R
modifications: Description of sequence: FKBP13-AcGFP-mCherry Fusion; Construct Name: FKBP-155; FKBP13 DRD in Construct : FKBP13 (mutated to match FKBP12 active site Q72R S79W Q84R A117W) (DRD M54A)
Consider B2, for which the EC90 with Jurkat cells [1] (setting [4]) worked out at 947 nM; in the assay with Jurkat cells [1] (setting [5]) it was 808 nM; in the assay with Jurkat cells [2] (read-out: Rapamycin EC90), 1140 nM; with Jurkat cells [2] (setting [6]), 1180 nM. Also, the “Fold Change” value is given as 41.68 with Jurkat cells [1] (tacrolimus, Table 7) and 5.6 with Jurkat cells [2]. In the assay on Jurkat cells [1] (tacrolimus), the “Tacrolimus FC” value was 61.3. The “Rapamycin FC” value in the assay with Jurkat cells [2] is 7.5. Besides, in the assay on Jurkat cells [2], the “difference between rapamycin and tacrolimus” value was “largest difference between rapamycin and tacrolimus”. The “EC50 (tacrolimus)/ EC50 (rapamycin)” value in the assay on Jurkat cells [2] is given as 0.72. Also, the “Fold change … (rapamycin)” value with Jurkat cells [2] is 7.44.

B3: FKBP-117: FKBP13 DRD Q72R, Q84E, A117W, V85R; SEQ ID NO: 67 (protein)
chain: B1 chain with A14M, W39S, V45R
modifications: Description of sequence: FKBP13-AcGFP-mCherry Fusion; Construct Name: FKBP-117; FKBP13 DRD in Construct : FKBP13 (mutated to match FKBP12 active site Q72R Q84E A117W) (DRD V85R)
On to B3, for which the EC90 in the assay with Jurkat cells [1] (setting [4]) was 27.2 nM; in the assay on Jurkat cells [1] (setting [5]), 25 nM; in the assay on Jurkat cells [2] (read-out: Rapamycin EC90), 170 nM; in the assay on Jurkat cells [2] (setting [6]), 171 nM. The “Fold Change” value was determined as 15.75 in the assay with Jurkat cells [1] (tacrolimus, Table 6); 18.6 with Jurkat cells [1] (tacrolimus, Table 7); 6.9 with Jurkat cells [2]. In addition, the FC in the assay with Jurkat cells [1] (tacrolimus, FIG. 35) is given as 24.07; in the assay on Jurkat cells [1] (tacrolimus, FIG. 36) it was 24.07; in the assay on Jurkat cells [1] (tacrolimus, FIG. 37), 24.07; in the assay on Jurkat cells [1] (tacrolimus, FIG. 38), 24.07. In addition, the Peak in the assay with Jurkat cells [1] (tacrolimus, FIG. 35) came out at 5193; in the assay with Jurkat cells [1] (tacrolimus, FIG. 36), 5193; with Jurkat cells [1] (tacrolimus, FIG. 37), 5193; in the assay on Jurkat cells [1] (tacrolimus, FIG. 38), 5193. Moreover, the “Tacrolimus FC” value in the assay with Jurkat cells [1] (tacrolimus) was determined as 21.2. In the assay with Jurkat cells [2], the “Rapamycin FC” value came to 7.6. For the same molecule, in the assay with Jurkat cells [2], the “EC50 (tacrolimus)/ EC50 (rapamycin)” value stood at 0.20. Further, the “Fold change … (rapamycin)” value in the assay with Jurkat cells [2] came to 2.70.

B4: FKBP-251: combinatorial FKBP13 mutant construct of Table 10 (protein)
chain: B1 chain with A14M, W39S, V45R, E90F
modifications: Description of sequence: Construct Name: FKBP-251; Mutation(s): Q72R Q84E A117W V85R DRD E130F
Consider B4, for which the Basal is 76 in the assay with Jurkat cells [1] (FIG. 40); 64 with Jurkat cells [1] (FIG. 46, BR1 (Biorep 1)); 46.1 in the assay with Jurkat cells [1] (FIG. 46, BR2 (Biorep 2)). Also, the FC in the assay on Jurkat cells [1] (FIG. 40) amounted to 100; with Jurkat cells [1] (FIG. 46, BR1 (Biorep 1)) it was 97.61; in the assay on Jurkat cells [1] (FIG. 46, BR2 (Biorep 2)), 76.79; in the assay with Jurkat cells [1] (tacrolimus, FIG. 35), 92.03; in the assay on Jurkat cells [1] (tacrolimus, FIG. 36) it was 92.03; with Jurkat cells [1] (tacrolimus, FIG. 37) it was 92.03. In the assay with Jurkat cells [1] (tacrolimus, FIG. 38), the FC came to 92.03. The Peak in the assay on Jurkat cells [1] (FIG. 40) came out at 7406; in the assay with Jurkat cells [1] (tacrolimus, FIG. 35), 5078; in the assay with Jurkat cells [1] (tacrolimus, FIG. 36) it was 5078; in the assay on Jurkat cells [1] (tacrolimus, FIG. 37), 5078; in the assay on Jurkat cells [1] (tacrolimus, FIG. 38) it was 5078. Also, the “At 10 uM” value with Jurkat cells [1] (FIG. 46, BR1 (Biorep 1)) is 6247; with Jurkat cells [1] (FIG. 46, BR2 (Biorep 2)), 3540. In addition, the “basal AcGFP expression” value with Jurkat cells [1] is “lowest basal expression”. For the same molecule, the EC90 came out at 104 nM in assay [3] (setting [7]) and 113 nM in assay [3] (setting [8]). Also, the “FC (fold change)” value in assay [3] came to 97.5.

B5: FKBP-197: FKBP13 DRD-AcGFP construct of Table 10 (protein)
chain: B1 chain with A14M, W39S, V45R, E90R
modifications: Description of sequence: Construct Name: FKBP-197; Mutation(s): Q72R Q84E A117W V85R DRD E130R
Take B5: in the assay on Jurkat cells [1] (FIG. 46, BR1 (Biorep 1)), the Basal is listed as 70.7, the FC is 101.12 and the “At 10 uM” value is given as 7149. Moreover, in the assay with Jurkat cells [1] (FIG. 46, BR2 (Biorep 2)), the Basal was 55.2, the FC worked out at 72.21 and the “At 10 uM” value was determined as 3986. In addition, the EC90 in assay [3] (setting [7]) amounted to 1090 nM. For the same molecule, the “FC (fold change)” value in assay [3] stood at 101.1. Besides, in assay [3] (setting [8]), the concentration for an effect of 90% (EC90) came to 1190 nM.

B6: FKBP-215: combinatorial FKBP13 mutant construct of Table 10, carries M54A (protein)
chain: B1 chain with P3R, W39S, E44G, V45R, K95Y
modifications: Description of sequence: Construct Name: FKBP-215; Mutation(s): Q72R Q84G A117W V85R DRD P43R M54A K135Y
As to B6, the Basal in the assay on Jurkat cells [1] (FIG. 48, BR1 (Biorep 1)) amounted to 65; in the assay on Jurkat cells [1] (FIG. 48, BR2 (Biorep 2)), 59.4. Also, the FC with Jurkat cells [1] (FIG. 48, BR1 (Biorep 1)) stood at 51.05; in the assay on Jurkat cells [1] (FIG. 48, BR2 (Biorep 2)), 53.30. For the same molecule, the “At 10 uM” value in the assay with Jurkat cells [1] (FIG. 48, BR1 (Biorep 1)) came to 3318; with Jurkat cells [1] (FIG. 48, BR2 (Biorep 2)), 3166. Besides, the “basal AcGFP expression” value in the assay on Jurkat cells [1] is reported as “lowest basal AcGFP expression”. Moreover, the concentration for an effect of 90% (EC90) in assay [3] (setting [7]) was determined as 388 nM; in assay [3] (setting [8]) it was 390 nM. For the same molecule, in assay [3], the “FC (fold change)” value came out at 51.0.

B7: FKBP-157: FKBP13 DRD Q72R, T82W, Q84E, A117W, M54A; SEQ ID NO: 107 (protein)
chain: B1 chain with W39S, T42W, E44R
modifications: Description of sequence: FKBP13-AcGFP-mCherry Fusion; Construct Name: FKBP-157; FKBP13 DRD in Construct : FKBP13 (mutated to match FKBP12 active site Q72R T82W Q84E A117W) (DRD M54A)
As to B7, the EC90 in the assay on Jurkat cells [1] (setting [4]) was 1320 nM. For the same molecule, the EC90 in the assay on Jurkat cells [1] (setting [5]) turned out to be 1140 nM. Moreover, in the assay with Jurkat cells [1] (tacrolimus, Table 7), the “Fold Change” value was 51.33. In addition, the “Tacrolimus FC” value in the assay on Jurkat cells [1] (tacrolimus) was 63.5. In addition, in the assay with Jurkat cells [2], the “Fold Change” value came out at 7.92; the “Rapamycin FC” value is 11.2; the “difference between rapamycin and tacrolimus” value was “largest difference between rapamycin and tacrolimus”; the “EC50 (tacrolimus)/ EC50 (rapamycin)” value is recorded as 0.97. For the same molecule, the “Fold change … (rapamycin)” value in the assay on Jurkat cells [2] turned out to be 6.48. The EC90 in the assay with Jurkat cells [2] (read-out: Rapamycin EC90) is 1010 nM. In the assay on Jurkat cells [2] (setting [6]), the 90% effect concentration (EC90) turned out to be 1080 nM.
